The values below come from paper PMC6855506.

The target in one series is T1, AphA (Vibrio cholerae) (UniProt Q9X399).
T1 sequence: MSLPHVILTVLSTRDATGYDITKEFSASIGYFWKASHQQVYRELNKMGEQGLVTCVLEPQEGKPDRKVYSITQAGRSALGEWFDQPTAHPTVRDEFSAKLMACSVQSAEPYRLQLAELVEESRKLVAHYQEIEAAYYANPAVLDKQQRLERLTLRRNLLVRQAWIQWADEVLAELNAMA
In words: EMSA. The note with it: 40 mM Tris acetate pH 7.9, 50 mM KCl, 5 mM MgCl2, 500 uM DTT, 12.5 ug/ml herring sperm DNA; EMSA 15 min at 37 C.

The target in another series is T2, CRP (Vibrio cholerae) (UniProt O34015).
T2 sequence: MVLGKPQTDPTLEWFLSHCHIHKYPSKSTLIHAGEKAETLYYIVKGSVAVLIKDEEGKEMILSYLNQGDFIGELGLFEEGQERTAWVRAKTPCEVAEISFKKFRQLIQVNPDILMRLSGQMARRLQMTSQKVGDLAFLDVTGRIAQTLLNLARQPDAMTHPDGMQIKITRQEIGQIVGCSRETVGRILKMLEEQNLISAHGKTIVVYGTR
In words: EMSA. Particulars: 40 mM Tris acetate pH 7.9, 50 mM KCl, 5 mM MgCl2, 500 uM DTT, 12.5 ug/ml herring sperm DNA; EMSA 15 min at 37 C.

Turning to “AATTCCATTTCCCAAAATCCTTTGCAAACCGTGAGAGGATGATGAATCAACTTGCATAGATGCTAACAGCTATCAAAAATGGCGTTGTTTTATAAAGAGAAGTAATGGAAATGA / AGCTTCATTTCCATTACTTCTCTTTATAAAACAACGCCATTTTTGATAGCTGTTAGCATCTATGCAAGTTGATTCATCATCCTCTCACGGTTTGCAAAGGATTTTGGGAAATGG [VC0857-VC0858 intergenic region]”, in the series with AphA (Vibrio cholerae), the binding entry is “binds”.
On to “AATTCTAGAGGAGCAACAAAAAATTGACGCTGTGATACTGGTCTCATAATCTGGCGCAAAAGTATTGCATCGATGTGAGATAAGTCCAGACTTATTTCTCTTCGTAAACTATCATTAGCTTCATAAAACAAGCA / AGCTTGCTTGTTTTATGAAGCTAATGATAGTTTACGAAGAGAAATAAGTCTGGACTTATCTCACATCGATGCAATACTTTTGCGCCAGATTATGAGACCAGTATCACAGCGTCAATTTTTTGTTGCTCCTCTAG [tfoX promoter wild type]”, for which the binding result with CRP (Vibrio cholerae) and with AphA (Vibrio cholerae) was “binds” each time.
